Source: US20260176675

Target: Eosinophil peroxidase (EPX) (Homo sapiens) (UniProt P11678+P11678)
Test: cleavage_in_vitro
Conditions: 30 min

Eosinophil peroxidase (EPX) (Homo sapiens), sequence (P11678 140-250, chain 1 of 2): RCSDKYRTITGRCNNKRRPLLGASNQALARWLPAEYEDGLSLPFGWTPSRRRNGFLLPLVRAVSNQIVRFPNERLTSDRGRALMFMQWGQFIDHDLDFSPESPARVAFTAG
Eosinophil peroxidase (EPX) (Homo sapiens), sequence (P11678 251-715, chain 2 of 2): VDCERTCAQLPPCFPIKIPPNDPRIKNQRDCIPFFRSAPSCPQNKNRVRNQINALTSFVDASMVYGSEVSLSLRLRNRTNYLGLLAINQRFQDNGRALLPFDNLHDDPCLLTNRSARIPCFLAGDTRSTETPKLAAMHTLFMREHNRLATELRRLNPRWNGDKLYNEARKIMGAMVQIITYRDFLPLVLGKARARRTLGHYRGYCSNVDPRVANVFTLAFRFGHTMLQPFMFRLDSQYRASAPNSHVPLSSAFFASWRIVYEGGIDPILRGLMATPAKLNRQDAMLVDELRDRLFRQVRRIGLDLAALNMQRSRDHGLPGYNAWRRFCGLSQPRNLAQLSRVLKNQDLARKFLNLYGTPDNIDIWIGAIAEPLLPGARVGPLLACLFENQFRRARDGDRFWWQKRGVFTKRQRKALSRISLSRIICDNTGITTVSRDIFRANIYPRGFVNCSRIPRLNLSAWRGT

| Sequence | activity (single riboadenosine cleavage site in FS flanked by dabcyl-dT (5') and fluorescein-dT (3'), EPX-activated RNA-cleaving DNAzyme, selection buffer, RT, no cleavage in buffer alone) [% cleavage] | activity (single riboadenosine cleavage site in FS flanked by dabcyl-dT (5') and fluorescein-dT (3') [13 dabcyl-dT, 14 riboadenosine (R), 15 fluorescein-dT], 50 nM EPX, selection buffer with 15 mM MgCl2, RT) [% cleavage] | Kd (single riboadenosine cleavage site in FS flanked by dabcyl-dT (5') and fluorescein-dT (3') [13 dabcyl-dT, 14 riboadenosine (R), 15 fluorescein-dT], apparent Kd = EPX concentration giving 50% of maximum cleavage, 50 mM HEPES pH 7.5, 150 mM NaCl, 15 mM MgCl2, 0.01% Tween20, RT) [µM] |
| --- | --- | --- | --- |
| CTATGAACTGACTATGACCTCACTACCAAGATGCCATCCTACCAACGGTCGATGGATGAGTAATACAGGCCGGATGGGTACAGTCGTAATCTATTCGAGCTCTGAACTCG [EPDz20 ligated to FS] | 15 | – | – |
| CTATGAACTGACTATGACCTCACTACCAAGATGCCATCCTACCAACGGTCGATGGATGAGTAATACAGGCCGGATGGGTACAGTCG [EPDz20M4 ligated to FS (FS-EPDz20M4)] | – | 18 | 0.03 |
